Reference: patent publication US20190322758A1 (IMMUNOPHARMACEUTIC INSTITUTE OF HEFEI RUIDA, published 2019)

T1: recombinant LunX protein (antigenic protein fragment of SEQ ID NO: 9 with C-terminal 6His-Tag) (human, UniProt Q9NP55 103-256)
T1 construct: Expressed in E. coli Rosetta (DE3) from pET-22b(+); also called LunX prokaryotic recombinant fusion protein; human LunX protein
T1 sequence: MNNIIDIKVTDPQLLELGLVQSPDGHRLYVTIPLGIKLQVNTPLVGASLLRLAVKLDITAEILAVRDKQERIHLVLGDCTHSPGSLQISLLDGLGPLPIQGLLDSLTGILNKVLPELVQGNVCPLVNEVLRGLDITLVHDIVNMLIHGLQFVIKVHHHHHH


Molecular target: T1, recombinant LunX protein (antigenic …)
Test: hybridoma screening, ELISA (and FACS)

binding result	Binder
binds	anti-LunX murine monoclonal antibody PrAb2 (hybridoma Ab2) (antibody, V domains shown, Mouse monoclonal antibody from hybridoma Ab2; heavy chain about 45 kDa, light chain about 25 kDa) VH: QVQLQQSGPELVKPGASVKISCKTSGYAFSRSWMSWVKQRPGQGLEWIGRIYPGDGDTKYSGKFEGKATLTADKSSSTAYMQLSSLTSVDSAVYFCARSGGIQGYGMDYWGQGTSVTVSS VL: DIVVTQSPAALAVSLGQRATISCRASKSVSTSGYTYMHWYQQKPGQPPKLLIYLASKLESGVPARFSGSGSGTDFTLNIHPVEEEDAATYYCQHSRDLTFGSGTKLEIKR
binds	anti-LunX murine monoclonal antibody PrAb1 (hybridoma Ab1) (antibody, V domains shown, Mouse monoclonal antibody from hybridoma Ab1; heavy chain about 45 kDa, light chain about 25 kDa) VH: QVQLQQSGPELVKPGASVKISCKTSGYAFSRSWMSWVKQRPGQGLEWIGRIYPGDGDTNYNGKFKGKATLTADKSSSTAYMQLSSLTSVDSAVYFCARSGGIQGYGMDYWGQGTSVTVSS VL: DIVLTQSPASLAVSLGQRATISCRASKSVSTAGYSYMHWYQQKPGQTPKLLIYLASKLESGVPARFSGSGSGTDFTLNIHPVEEEDAATYYCQHSRELTFGSGTKLEIKR
